Results from publication PMC7859239, “Conserved strategies of RNA polymerase I hibernation and activation” (Nature Communications, 2021).

B1: S. pombe Pol I subunit AC40 with C-terminal flag-his tag (natural protein, UniProt O94616 1-348, looked up)
chain: MAAVDRSRTEISVLSDRVTDVGSVDFPGYYFDEDNIWDLDKFKKNLKVSITSLDQETMVFEISGIDASIANAFRRILIAEIPTLAFEFVYIINNTSIIQDEVLSHRIGLVPISADPDMFKWFQHPLPGQEATHTDYDTVVFSLNKKCEFNKNAATDEKDPKRLYVNSEVYSGDLIWKPQGRQEERFADNPIRVVNPDIVVAKLRPGQEIDLEAHAILGIGQDHAKFSPVATASYRLLPTIHILSPIEGEDAVKFQKCFPKGVIELEEGPDGKKQARVADVRKDTVSRECLRHPEFADKVQLGRVRDHYLFSVESTGIMKPDVLFIKSIAVLKSKCLAVKSSLQNISSD
notes: RNA polymerase I and III subunit AC40, S. pombe; source: endogenous, genomically tagged S. pombe strain, purified as part of Pol I (Ni-NTA, MonoQ, MonoS); not shown: 10xHis, C-terminal, kept
B2: S. pombe Pol I subunit A43 (natural protein, UniProt O43036 1-173, looked up)
chain: MPDLSLYKQTVDLYLSIAPGHSRDPLNAIQEHMDSMILSKLPRINGIVLAYDNIRFLEKSAKVMYDSPFSFIWVRVDVLVFSPKKGDCLEGKINLVSPSHIGLLILGIFNASIPRKSIPKDWIFIEPDTTEEQGRWKTNDGNILEPGKDLEFVVDGIQREAGLTMVQGTLANS
notes: RNA polymerase I stalk subunit A43, S. pombe; Lacks the connector domain of the S. cerevisiae protein; also called stalk subunit A43; source: endogenous, S. pombe, purified as part of Pol I (Ni-NTA, MonoQ, MonoS)
B3: S. pombe common RNA polymerase subunit Rpb12 (natural protein, UniProt P48011 1-63, looked up)
chain: MNHPTSTGGTAFNPPRPATMIYLCADCGARNTIQAKEVIRCRECGHRVMYKMRTKRMVQFEAR
notes: general (common) RNA polymerase subunit Rpb12, S. pombe; source: endogenous, S. pombe, purified as part of Pol I (Ni-NTA, MonoQ, MonoS)
B4: S. pombe Pol I subunit A135 (natural protein, UniProt Q9P7X8 1-1174, looked up)
chain: MSFQTLERERTFKNPPKDGTSFPDLQKAVKPHVDSFNALTNAGLLNYAVKEIGEKCAFDSITQEEGGALKFGNKISFRVDEVQIAKPMLSSRERSSINRKVYPAEARERLTTYKSRLVLKFSWSVNGGPRQSEMREVGMIPIMVRSNRCHLEGLSPAELIAHKEESEEMGGYFIVNGIEKLIRMLILPKRNHPTAIIRPSFANRGTSYSQYGLSIRCVRPDQSSLTNTLHYLNNGVTMFRFHWRKNEYLIPSMMILKALLETSDKEIFEGIVGKDLGNTFLTDRVELMLRAYKSYGLYSQTETLQYLGSKFRVVLGVAEDLTDVEVGRFLLQKVVLVHLREAKDKFRLLLFMIRKLYALVAGECCADNPDSPQHQEILLGGFLYGQILKEKIEDWLNSIRAQINLDVRRSAPGVDFSDRKYLTRVFSKINNDIGTKLQYFLSTGNLVSNTGLDLQQATGYTVVAEKLNFYRFLSHFRMVHRGAFFAELKTTTVRKLLPEAWGFMCPVHTPDGSPCGLLNHLARKCEIVTHPSDVSQIPSLLLSLGVDPPSVVGHESGWGCVQLDGKIVGWCTYKLAKHVADVLRLMKIEYAVKLRNGTATEPAKVPLDLEIGYVPPSHNGQYPGLYLFSNPARMVRPVKHISTGELDMLGPFEQVYMDIACFPKEIVPKVSTHVEYSPTNVLSIVANMTPFSDFNQSPRNMYQCQMGKQTMGTPGTALRYRTDNKLYRLQTGQTPVVRPKLHNTYGLDHYPNGTNAVVAVISYTGYDMEDAMILNKSAHERGFGYGTVYKGESFDLSQKRRRGEPVVHHFGFAPGSTPRREWLQKLDADGLPFIGIKLEDGDPIVAYYDESTGQNFIETYHGTEPGFVDEVRLLGNDVGDSECQQIHVKLRITRSPIIGDKFSSRHGQKGICSQKWPTVDMPFTESGMQPDIIINPHAFPSRMTIGMFIESLAGKAGACHGLAQDSTPFIYSEQQTAADYFGEQLVKAGYNYHGNEPMYSGITGQEMKADIYIGVVYYQRLRHMVSDKFQVRTTGPIHNLTRQPVKGRKRAGGIRFGEMERDAVIGHGTSFLMQDRLMNCSDYAQSWVCRDCGSIISIMSTISMNGVGSASEVRCRSCAKPALGLEDTSDIWQDGSGKKFVGGTNTTLIALPSVFNYLTAELTAMNIKMMLEVK
notes: RNA polymerase I subunit A135, S. pombe; source: endogenous, S. pombe, purified as part of Pol I (Ni-NTA, MonoQ, MonoS)

Experiments:
[1] = molecular target: T1, S. pombe Pol I subunit A190 (Schizosaccharomyces pombe (endogenous …, UniProt P15398 1-1689)); test: cryo-EM structure; dimer particles in the 'monomer' dataset of BS3-crosslinked Sp Pol I after SEC (5 mM HEPES pH 7.8, 1 mM MgCl2, 10 µM ZnCl2, 150 mM KCl, 5 mM DTT); C2 symmetry imposed; 4.5 Å; model by placing two monomers and rigid body fitting of subdomains; settings: both partners purified
T1 construct: RNA polymerase I subunit A190, S. pombe; source: endogenous, S. pombe, purified as part of Pol I (Ni-NTA, MonoQ, MonoS)
T1 sequence (P15398 whole entry): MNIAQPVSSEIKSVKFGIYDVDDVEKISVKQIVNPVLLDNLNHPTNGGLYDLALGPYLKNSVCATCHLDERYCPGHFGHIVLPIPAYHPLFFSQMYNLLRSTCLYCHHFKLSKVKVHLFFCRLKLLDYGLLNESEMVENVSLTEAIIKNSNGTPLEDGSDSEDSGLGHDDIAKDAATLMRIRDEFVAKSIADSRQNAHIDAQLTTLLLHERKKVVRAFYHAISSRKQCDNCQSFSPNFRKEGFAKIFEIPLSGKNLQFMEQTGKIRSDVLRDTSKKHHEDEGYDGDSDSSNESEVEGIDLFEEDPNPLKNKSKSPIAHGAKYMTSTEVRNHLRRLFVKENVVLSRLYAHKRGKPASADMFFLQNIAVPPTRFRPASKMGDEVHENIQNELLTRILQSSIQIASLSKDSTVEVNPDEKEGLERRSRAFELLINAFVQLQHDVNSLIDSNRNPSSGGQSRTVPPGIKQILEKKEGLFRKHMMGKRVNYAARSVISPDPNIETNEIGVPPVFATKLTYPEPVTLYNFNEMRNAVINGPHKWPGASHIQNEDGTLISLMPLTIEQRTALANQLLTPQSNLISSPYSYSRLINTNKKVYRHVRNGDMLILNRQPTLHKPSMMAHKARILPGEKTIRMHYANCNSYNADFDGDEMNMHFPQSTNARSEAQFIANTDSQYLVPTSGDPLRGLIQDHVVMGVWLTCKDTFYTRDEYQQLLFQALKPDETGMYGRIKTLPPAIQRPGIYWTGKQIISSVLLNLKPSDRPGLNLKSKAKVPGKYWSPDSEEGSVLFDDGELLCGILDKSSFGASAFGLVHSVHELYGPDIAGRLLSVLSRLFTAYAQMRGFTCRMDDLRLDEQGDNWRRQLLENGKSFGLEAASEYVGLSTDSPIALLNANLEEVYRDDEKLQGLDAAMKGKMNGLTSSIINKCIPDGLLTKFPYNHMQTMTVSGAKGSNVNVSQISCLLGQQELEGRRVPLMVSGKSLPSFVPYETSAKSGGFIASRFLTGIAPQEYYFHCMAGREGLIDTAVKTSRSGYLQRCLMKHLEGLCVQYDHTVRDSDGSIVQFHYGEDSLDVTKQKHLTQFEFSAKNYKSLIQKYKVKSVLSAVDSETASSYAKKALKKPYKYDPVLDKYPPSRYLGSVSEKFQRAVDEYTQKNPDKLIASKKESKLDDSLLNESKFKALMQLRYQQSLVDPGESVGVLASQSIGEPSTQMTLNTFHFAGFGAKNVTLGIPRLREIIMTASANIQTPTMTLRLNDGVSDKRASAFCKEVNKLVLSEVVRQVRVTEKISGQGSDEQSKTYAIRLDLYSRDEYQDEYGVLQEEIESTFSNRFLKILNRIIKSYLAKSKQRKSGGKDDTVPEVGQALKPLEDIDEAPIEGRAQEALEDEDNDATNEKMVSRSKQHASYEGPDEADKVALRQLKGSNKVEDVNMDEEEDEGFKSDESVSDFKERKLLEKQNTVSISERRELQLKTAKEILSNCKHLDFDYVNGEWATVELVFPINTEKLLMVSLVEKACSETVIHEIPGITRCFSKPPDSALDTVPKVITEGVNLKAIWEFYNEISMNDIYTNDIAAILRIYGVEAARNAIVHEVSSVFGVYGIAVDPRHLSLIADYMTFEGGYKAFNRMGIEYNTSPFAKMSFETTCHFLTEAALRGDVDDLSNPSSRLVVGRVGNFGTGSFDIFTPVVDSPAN

[2] = molecular target: B4; test: as above; settings: both partners purified

Row | binding result [1] | binding result [2] | Binder
1 | binds | – | B1
2 | – | binds | B2
3 | binds | – | B3
4 | binds | – | B4
